# Reference: doi:10.1101/2023.11.30.569392
# T1: recTZF-WT (GST-TEV-TTP TZF) (Mus musculus, UniProt P22893 93-165)
# T1 sequence: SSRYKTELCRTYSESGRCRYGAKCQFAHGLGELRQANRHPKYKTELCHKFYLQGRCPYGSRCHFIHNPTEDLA
# Target: T1, recTZF-WT (GST-TEV-TTP TZF)
# Assay: EMSA
binder,measurement,value
AUUAUUUAUUAUUUAUUUAUUAUUUA (ssRNA) [Tnf-ARE],binding result,binds
